Reference: publication PMC5599796, “Structural insights into transcription initiation by yeast RNA polymerase I” (The EMBO Journal, 2017)
Values belong to the binder of their own block, whether it stands above or below them.

Experiments:
Rrn7 = target: T1, Rrn7 (yeast, UniProt P40992 1-514); assay: cross-linking; purified Pol I PIC (50 ug, 1 mg/ml) with H12/D12 DSS at 2 and 5 mM, 30 min at 37°C; LC-MS/MS, xQuest, LD score at least 23; conditions: both partners purified
T1 construct: Rrn7, TFIIB-like subunit of yeast Core Factor; Stood in the assay as a subunit of CF within the Pol I PIC; also called CF subunit Rrn7; TFIIB-related subunit Rrn7; source: E. coli BL21(DE3)Star pRARE, co-expressed as Core Factor, purified
T1 sequence: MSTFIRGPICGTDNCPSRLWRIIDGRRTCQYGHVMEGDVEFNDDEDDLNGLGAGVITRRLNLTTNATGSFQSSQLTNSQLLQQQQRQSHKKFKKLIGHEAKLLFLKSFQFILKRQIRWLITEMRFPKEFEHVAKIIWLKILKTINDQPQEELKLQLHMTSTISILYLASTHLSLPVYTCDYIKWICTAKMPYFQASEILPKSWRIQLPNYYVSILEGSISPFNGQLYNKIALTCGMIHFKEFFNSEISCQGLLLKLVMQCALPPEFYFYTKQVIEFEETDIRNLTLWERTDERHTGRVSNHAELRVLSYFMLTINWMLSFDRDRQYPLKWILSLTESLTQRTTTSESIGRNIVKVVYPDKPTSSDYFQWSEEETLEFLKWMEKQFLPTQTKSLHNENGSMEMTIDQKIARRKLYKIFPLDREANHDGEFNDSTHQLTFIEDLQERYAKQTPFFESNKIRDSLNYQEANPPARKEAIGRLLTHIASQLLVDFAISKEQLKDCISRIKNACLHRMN

A135 = target: T2, A135 (S. cerevisiae (endogenous in strain …, UniProt P22138 1-1203)); assay: cryo-EM structure; Pol I (1.5 uM) and Rrn3 (3 uM) mixed 5 h at 4°C, then 70-bp transcription scaffold (-50 to +20, 15-nt mismatch, 10-nt RNA) 1 h, then CF (1.5 uM); dialysed from 300 to 100 mM potassium acetate, 50 mM HEPES-NaOH pH 7.5, 5 mM magnesium acetate, 10 mM DTT; 38,589 particles, 4.4 Å; conditions: both partners purified
T2 construct: A135, second largest subunit of yeast RNA polymerase I; Stood in the assay as a subunit of Pol I within the PIC; also called second largest subunit of Pol I; source: purified from S. cerevisiae strain SC1613 as a subunit of Pol I
T2 sequence (looked up): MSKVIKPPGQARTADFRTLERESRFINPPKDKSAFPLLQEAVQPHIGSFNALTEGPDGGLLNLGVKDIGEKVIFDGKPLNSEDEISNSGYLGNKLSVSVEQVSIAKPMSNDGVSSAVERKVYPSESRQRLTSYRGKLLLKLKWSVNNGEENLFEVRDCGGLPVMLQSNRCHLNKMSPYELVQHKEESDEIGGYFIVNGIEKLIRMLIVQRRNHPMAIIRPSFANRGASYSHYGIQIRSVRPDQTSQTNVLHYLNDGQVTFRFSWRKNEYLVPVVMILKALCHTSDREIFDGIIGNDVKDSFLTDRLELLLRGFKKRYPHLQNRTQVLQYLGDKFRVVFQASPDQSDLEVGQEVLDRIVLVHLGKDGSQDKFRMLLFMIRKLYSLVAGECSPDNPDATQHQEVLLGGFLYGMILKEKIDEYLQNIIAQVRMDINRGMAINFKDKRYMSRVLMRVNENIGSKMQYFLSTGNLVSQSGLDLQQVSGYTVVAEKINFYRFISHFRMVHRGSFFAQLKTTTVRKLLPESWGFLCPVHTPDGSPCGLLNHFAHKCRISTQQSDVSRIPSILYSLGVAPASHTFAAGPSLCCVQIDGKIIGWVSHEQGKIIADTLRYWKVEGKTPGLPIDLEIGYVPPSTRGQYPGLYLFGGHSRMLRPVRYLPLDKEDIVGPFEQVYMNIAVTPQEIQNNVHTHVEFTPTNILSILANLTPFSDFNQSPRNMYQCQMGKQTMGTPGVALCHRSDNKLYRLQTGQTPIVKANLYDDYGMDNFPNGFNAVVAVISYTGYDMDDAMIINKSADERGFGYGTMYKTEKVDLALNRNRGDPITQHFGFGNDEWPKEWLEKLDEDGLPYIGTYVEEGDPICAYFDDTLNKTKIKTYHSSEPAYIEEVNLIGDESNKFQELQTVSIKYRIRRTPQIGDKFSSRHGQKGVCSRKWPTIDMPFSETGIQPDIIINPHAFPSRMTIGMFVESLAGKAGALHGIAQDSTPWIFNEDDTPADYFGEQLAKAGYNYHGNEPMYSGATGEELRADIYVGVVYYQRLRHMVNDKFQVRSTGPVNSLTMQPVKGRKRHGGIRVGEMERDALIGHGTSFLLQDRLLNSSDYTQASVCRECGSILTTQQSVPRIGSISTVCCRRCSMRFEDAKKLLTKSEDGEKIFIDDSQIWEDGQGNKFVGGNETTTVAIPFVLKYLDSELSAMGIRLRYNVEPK

binding result (Rrn7): binds
B1: Rpb12 (natural protein, UniProt P40422 1-70, looked up)
chain: MSREGFQIPTNLDAAAAGTSQARTATLKYICAECSSKLSLSRTDAVRCKDCGHRILLKARTKRLVQFEAR
notes: Rpb12, subunit of yeast RNA polymerase I; Stood in the assay as a subunit of Pol I within the PIC; source: purified from S. cerevisiae strain SC1613 as a subunit of Pol I

binding result (A135): binds
B2: Rrn11 (natural protein, yeast)
chain: MFEVPITLTNRKFAQRRKLKYQYINYISRRFDRISKKSTTTDSLPTPENSAAENNDEEEGQNSEAGTYRRSVLQQKKRRRERHWRSVVGEIYSTTESETDSQEEETEEGGEHDTGIDKEDSDEERKFWKKYEKPEKSFEIWRTVSSQNKQPINKQKMTYHNFKKIEKIPLRKMEIPLLHCTKENKLYFQSISRGLEPLKTSTSEVRNYRTRHIVTLTDLLHLNVSRHNWSLAYKIFATLIRIPGVQIKSLWGIGVEILDNLSNSSSGLDFLQWMCQIYSSKSRFVQNINYRSIVPPFQTGSRTHTAKFAITYLWSSLINCQKSMEPSSNIIDKPFDTENDLLQELIDKISEWVLTPPFMEDAEVWFIYASCHLLKADTLSRQFVNDNKNNDLIGLDRDIKINQVIKHIHYVRTFLKICLDKGGFAVPSRLIENQLKSFESRLYGEAQDIQERDVANVYDSIDNSSVENSFGDVYETNAEFLDTQLMDLSPEDNGLDEMHYSDEDSSE
notes: Rrn11, subunit of yeast Core Factor; Stood in the assay as a subunit of CF within the Pol I PIC; also called CF subunit Rrn11; source: E. coli BL21(DE3)Star pRARE, co-expressed as Core Factor, purified
